Reference: PMC6336354, “A transient helix in the disordered region of dynein light intermediate chain links the motor to structurally diverse adaptors for cargo transport” (PLoS Biology, 2019)

T1: RILP(1–401)::Strep-tag II (human, UniProt Q96NA2 1-401)
T1 construct: also called RILP::Strep-tag II; source: Sf21 insect cells (baculovirus), purified (Strep-Tactin Sepharose); not shown: Strep-tag II (after linker GSGSGR), C-terminal, kept
T1 sequence (looked up): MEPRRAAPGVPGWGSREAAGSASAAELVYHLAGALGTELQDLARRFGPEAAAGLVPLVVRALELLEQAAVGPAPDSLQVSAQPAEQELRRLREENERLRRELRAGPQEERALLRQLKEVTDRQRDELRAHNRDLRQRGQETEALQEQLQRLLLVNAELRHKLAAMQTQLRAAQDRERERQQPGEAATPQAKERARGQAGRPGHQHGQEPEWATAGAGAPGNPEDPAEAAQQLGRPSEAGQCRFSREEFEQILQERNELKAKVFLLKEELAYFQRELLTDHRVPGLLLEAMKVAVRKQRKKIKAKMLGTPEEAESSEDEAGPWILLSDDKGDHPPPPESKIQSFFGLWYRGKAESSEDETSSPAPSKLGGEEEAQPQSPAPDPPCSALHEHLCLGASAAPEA

T2: RAB11FIP3(2–756)::Strep-tag II (human, UniProt O75154 2-756)
T2 construct: source: E. coli BL21, purified (Ni-NTA, TEV cleavage, Strep-Tactin; dialysis or SEC); not shown: 6xHis::MBP, N-terminal, cleaved; Strep-tag II (after linker GSGSGR), C-terminal, kept
T2 sequence (looked up): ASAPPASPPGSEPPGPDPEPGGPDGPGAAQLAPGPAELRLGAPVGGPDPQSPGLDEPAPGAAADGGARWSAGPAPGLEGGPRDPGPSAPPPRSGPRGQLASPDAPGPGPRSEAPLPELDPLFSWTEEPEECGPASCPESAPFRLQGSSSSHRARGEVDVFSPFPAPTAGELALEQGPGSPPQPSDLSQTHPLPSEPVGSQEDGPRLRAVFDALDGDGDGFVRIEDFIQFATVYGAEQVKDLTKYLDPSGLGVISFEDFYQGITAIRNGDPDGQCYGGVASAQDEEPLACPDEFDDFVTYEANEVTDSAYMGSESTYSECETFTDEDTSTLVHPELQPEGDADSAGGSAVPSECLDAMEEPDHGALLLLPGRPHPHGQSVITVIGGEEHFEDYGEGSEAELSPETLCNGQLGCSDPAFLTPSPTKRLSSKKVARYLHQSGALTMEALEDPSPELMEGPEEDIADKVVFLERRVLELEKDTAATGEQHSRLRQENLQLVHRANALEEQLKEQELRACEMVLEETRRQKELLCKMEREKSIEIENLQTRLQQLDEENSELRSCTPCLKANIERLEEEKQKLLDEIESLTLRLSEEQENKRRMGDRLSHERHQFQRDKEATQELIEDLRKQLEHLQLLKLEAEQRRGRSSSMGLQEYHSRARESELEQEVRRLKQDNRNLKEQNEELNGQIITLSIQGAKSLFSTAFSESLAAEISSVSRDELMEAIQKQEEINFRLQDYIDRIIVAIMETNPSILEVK

T3: NIN(1–693)::Strep-tag II (human, UniProt Q8N4C6 1-693)
T3 construct: human ninein (NIN), N-terminal fragment, residues 1-693 of 2,090; also called ninein; source: E. coli Rosetta, purified (Ni-NTA, TEV cleavage, Strep-Tactin; dialysis or SEC); not shown: 6xHis::MBP, N-terminal, cleaved; Strep-tag II (after linker GSGSGR), C-terminal, kept
T3 sequence (looked up): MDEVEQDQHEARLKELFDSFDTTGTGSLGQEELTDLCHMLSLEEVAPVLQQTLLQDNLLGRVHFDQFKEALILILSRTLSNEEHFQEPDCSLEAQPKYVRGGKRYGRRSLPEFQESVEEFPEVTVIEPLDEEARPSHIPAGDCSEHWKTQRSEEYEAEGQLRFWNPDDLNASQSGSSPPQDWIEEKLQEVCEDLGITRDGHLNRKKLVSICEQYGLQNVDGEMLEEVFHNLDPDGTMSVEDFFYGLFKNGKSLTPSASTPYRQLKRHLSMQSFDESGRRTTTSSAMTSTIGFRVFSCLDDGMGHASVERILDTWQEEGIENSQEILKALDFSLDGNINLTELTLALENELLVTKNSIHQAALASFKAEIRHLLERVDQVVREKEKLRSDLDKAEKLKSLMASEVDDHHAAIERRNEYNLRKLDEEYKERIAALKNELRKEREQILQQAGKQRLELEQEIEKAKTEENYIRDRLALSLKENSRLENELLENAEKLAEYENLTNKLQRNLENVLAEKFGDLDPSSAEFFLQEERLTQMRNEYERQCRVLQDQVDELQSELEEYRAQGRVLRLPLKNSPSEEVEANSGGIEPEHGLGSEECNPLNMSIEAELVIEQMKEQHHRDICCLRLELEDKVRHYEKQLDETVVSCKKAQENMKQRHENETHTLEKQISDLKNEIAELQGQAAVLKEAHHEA

T4: HOOK3(2–552)::Strep-tag II (human, UniProt Q86VS8 2-552)
T4 construct: human Hook homolog 3 (HOOK3), residues 2-552; used for the GST pull-downs; also called Hook homolog 3; source: E. coli Rosetta, purified (Ni-NTA, TEV cleavage, Strep-Tactin; dialysis or SEC); not shown: 6xHis::MBP, N-terminal, cleaved; Strep-tag II (after linker GSGSGR), C-terminal, kept
T4 sequence (looked up): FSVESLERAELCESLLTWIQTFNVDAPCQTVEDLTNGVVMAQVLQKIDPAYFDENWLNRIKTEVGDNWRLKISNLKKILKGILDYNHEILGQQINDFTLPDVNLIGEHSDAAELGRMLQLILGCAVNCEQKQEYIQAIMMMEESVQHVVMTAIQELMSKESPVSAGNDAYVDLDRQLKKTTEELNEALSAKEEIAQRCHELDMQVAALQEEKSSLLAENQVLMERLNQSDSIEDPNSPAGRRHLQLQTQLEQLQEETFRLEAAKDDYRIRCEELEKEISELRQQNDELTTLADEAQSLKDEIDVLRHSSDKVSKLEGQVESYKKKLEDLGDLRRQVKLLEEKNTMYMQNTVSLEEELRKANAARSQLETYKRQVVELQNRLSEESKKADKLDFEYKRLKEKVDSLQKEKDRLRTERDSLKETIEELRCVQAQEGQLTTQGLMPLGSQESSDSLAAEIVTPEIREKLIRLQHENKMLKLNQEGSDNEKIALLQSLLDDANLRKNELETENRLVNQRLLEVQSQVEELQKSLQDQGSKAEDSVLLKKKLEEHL

T5: SPDL1(2–359)::Strep-tag II (human, UniProt Q96EA4 2-359)
T5 construct: human Spindly (SPDL1), N-terminal region, residues 2-359; also called Spindly; source: E. coli BL21, purified (Ni-NTA, TEV cleavage, Strep-Tactin; dialysis or SEC); not shown: 6xHis::MBP, N-terminal, cleaved; Strep-tag II (after linker GSGSGR), C-terminal, kept
T5 sequence (looked up): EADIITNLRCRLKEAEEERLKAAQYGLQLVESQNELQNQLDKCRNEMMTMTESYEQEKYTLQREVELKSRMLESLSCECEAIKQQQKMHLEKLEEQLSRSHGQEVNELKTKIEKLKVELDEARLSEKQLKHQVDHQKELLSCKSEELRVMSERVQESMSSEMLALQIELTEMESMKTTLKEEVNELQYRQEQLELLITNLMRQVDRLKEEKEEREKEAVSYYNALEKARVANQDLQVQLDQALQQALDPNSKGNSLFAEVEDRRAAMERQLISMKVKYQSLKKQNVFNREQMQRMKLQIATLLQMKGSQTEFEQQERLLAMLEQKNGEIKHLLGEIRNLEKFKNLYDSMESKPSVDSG


What was measured:
Details in all cases: both partners purified
[1] = target: T1, RILP(1–401)::Strep-tag II; test: SPR; Biacore X100, CM5 chip; GST::LIC1::6xHis captured by immobilised anti-GST antibody, RILP::Strep-tag II as analyte (0.3–50 μM); 25°C; 10 mM HEPES, 150 mM NaCl, 3 mM EDTA, 0.05% surfactant P20, pH 7.4; 1:1 model
[2] = target: T2, RAB11FIP3(2–756)::Strep-tag II; test: pull-down; GST::LIC::6xHis (50 pmol) with 50 or 250 pmol adaptor and glutathione agarose, 1 h at 4°C, 150 μL of 50 mM HEPES, 100 mM NaCl, 5 mM DTT, pH 7.5, 0.1% Tween 20; Coomassie staining and immunoblot against Strep-tag II
NIN(1–693)::Strep-tag II = target: T3, NIN(1–693)::Strep-tag II; test: as above
[3] = target: T6, BICD2(2–422)::Strep-tag II (human, UniProt Q8TD16 2-422); test: as above
T6 construct: human bicaudal D homolog 2 (BICD2), N-terminal region, residues 2-422; also called bicaudal D homolog 2; source: E. coli BL21, purified (Ni-NTA, TEV cleavage, Strep-Tactin; dialysis or SEC); not shown: 6xHis::MBP, N-terminal, cleaved; Strep-tag II (after linker GSGSGR), C-terminal, kept

[4] = target: T1, RILP(1–401)::Strep-tag II; test: as above
[5] = target: T4, HOOK3(2–552)::Strep-tag II; test: as above
[6] = target: T6, BICD2(2–422)::Strep-tag II; test: SPR; Biacore 3000; His-tagged LIC1 immobilised on NTA chip (200–300 RU), Strep-tagged adaptor as analyte; HBS-P (10 mM HEPES, 150 mM NaCl, 0.005% surfactant P20, pH 7.4)
[7] = target: T5, SPDL1(2–359)::Strep-tag II; test: as above

T6 sequence (Q8TD16 2-422): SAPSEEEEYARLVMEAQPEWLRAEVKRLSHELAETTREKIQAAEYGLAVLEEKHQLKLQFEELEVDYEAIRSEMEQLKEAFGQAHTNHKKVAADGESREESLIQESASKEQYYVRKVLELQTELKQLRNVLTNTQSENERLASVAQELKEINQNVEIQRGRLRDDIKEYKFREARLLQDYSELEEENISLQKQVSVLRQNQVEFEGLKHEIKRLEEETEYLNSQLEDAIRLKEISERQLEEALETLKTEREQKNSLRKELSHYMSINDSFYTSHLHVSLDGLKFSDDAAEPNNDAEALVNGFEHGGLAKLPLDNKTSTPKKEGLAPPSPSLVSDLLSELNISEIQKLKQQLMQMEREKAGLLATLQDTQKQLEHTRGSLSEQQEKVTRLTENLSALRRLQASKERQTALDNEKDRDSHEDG

Kd [1] [nM]	koff [1] [s⁻¹]	kon [1] [M⁻¹ s⁻¹]	binding result [2]	binding result (NIN(1–693)::Strep-tag II)	binding result [4]	binding result [5]	Binder	binding result [3]	also measured
1180	0.00101	872	binds	binds			GST::LIC1(388–523)::6xHis (domain or fragment, human, single N-terminal tryptophan added in the construct; also called LIC1-C; source: E. coli BL21, purified (glutathione agarose, Ni-NTA; dialysis or SEC); not shown: GST, N-terminal, kept; 6xHis (after linker GSGSG), C-terminal, kept) WPTAAGRPVDASPRVPGGSPRTPNRSVSSNVASVSPIPAGSKKIDPNMKAGATSEGVLANFFNSLLSKKTGSPGGPGVSGGSPAGGAGGGSSGLPPSTKKSGQKPVLDVHAELDRITRKPVTVSPTTPTSPTEGEAS		
					binds	binds	WSEGVLANFFNSLLSKKTGSPGGPGVSGGSPAG (domain or fragment, human, single N-terminal tryptophan added in the construct; human dynein light intermediate chain 1 (DYNC1LI1), residues 440-471; source: E. coli BL21, purified (glutathione agarose, Ni-NTA; dialysis or SEC); not shown: GST, N-terminal, kept; 6xHis (after linker GSGSG), C-terminal, kept) [GST::LIC1(440–471)::6xHis]	binds	
					binds	binds	WPAGSKKIDPNMKAGATSEGVLANFFNSLLSKKTGSPGGPGVSGGSPAG (domain or fragment, human, single N-terminal tryptophan added in the construct; human dynein light intermediate chain 1 (DYNC1LI1), residues 424-471; source: E. coli BL21, purified (glutathione agarose, Ni-NTA; dialysis or SEC); not shown: GST, N-terminal, kept; 6xHis (after linker GSGSG), C-terminal, kept) [GST::LIC1(424–471)::6xHis]	binds	
1670	0.000996	606					WSEGVLANFFNSLLSKK (single N-terminal tryptophan added in the construct; human dynein light intermediate chain 1 (DYNC1LI1), helix 1, residues 440-455; also called LIC1-C helix 1; GST::LIC1(440–455)::6His; source: E. coli BL21, purified (glutathione agarose, Ni-NTA; dialysis or SEC); not shown: GST, N-terminal, kept; 6xHis (after linker GSGSG), C-terminal, kept) [GST::LIC1(440–455)::6xHis]		
			binds	binds	binds	binds	GST::LIC1(388–471)::6xHis (domain or fragment, human, single N-terminal tryptophan added in the construct; source: E. coli BL21, purified (glutathione agarose, Ni-NTA; dialysis or SEC); not shown: GST, N-terminal, kept; 6xHis (after linker GSGSG), C-terminal, kept) WPTAAGRPVDASPRVPGGSPRTPNRSVSSNVASVSPIPAGSKKIDPNMKAGATSEGVLANFFNSLLSKKTGSPGGPGVSGGSPAG		
							LIC1(388–471)::6xHis (domain or fragment, human, single N-terminal tryptophan added in the construct; source: E. coli BL21, purified (GSTrap, PreScission cleavage, second GSTrap, SEC Superdex 75); not shown: GST, N-terminal, cleaved; 6xHis (after linker GSGSG), C-terminal, kept) WPTAAGRPVDASPRVPGGSPRTPNRSVSSNVASVSPIPAGSKKIDPNMKAGATSEGVLANFFNSLLSKKTGSPGGPGVSGGSPAG		Kd [6]: 700 nM; Kd [7]: 5400 nM
